Source: paper PMC11022072 (2024)

Legend:
Experiment in all cases: BLI
[1] = molecular target: LbpB C-lobe ΔCaHD
[2] = molecular target: FL LbpB ΔCaHD
[3] = molecular target: LbpB C-lobe

B1: bovine lactoferrin (Lf) (natural protein)
chain: APRKNVRWCTISQPEWFKCRRWQWRMKKLGAPSITCVRRAFALECIRAIAEKKADAVTLDGGMVFEAGRDPYKLRPVAAEIYGTKESPQTHYYAVAVVKKGSNFQLDQLQGRKSCHTGLGRSAGWIIPMGILRPYLSWTESLEPLQGAVAKFFSASCVPCIDRQAYPNLCQLCKGEGENQCACSSREPYFGYSGAFKCLQDGAGDVAFVKETTVFENLPEKADRDQYELLCLNNSRAPVDAFKECHLAQVPSHAVVARSVDGKEDLIWKLLSKAQEKFGKNKSRSFQLFGSPPGQRDLLFKDSALGFLRIPSKVDSALYLGSRYLTTLKNLRETAEEVKARYTRVVWCAVGPEEQKKCQQWSQQSGQNVTCATASTTDDCIVLVLKGEADALNLDGGYIYTAGKCGLVPVLAENRKSSKHSSLDCVLRPTEGYLAVAVVKKANEGLTWNSLKDKKSCHTAVDRTAGWNIPMGLIVNQTGSCAFDEFFSQSCAPGADPKSRLCALCAGDDQGLDKCVPNSKEKYYGYTGAFRCLAEDVGDVAFVKNDTVWENTNGESTADWAKNLNREDFRLLCLDGTRKPVTEAQSCHLAVAPNHAVVSRSDRAAHVKQVLLHQQALFGKNGKNCPDKFCLFKSETKNLLFNDNTECLAKLGGRPTYEEYLGTEYVTAIANLKKCSTSPLLEACAFLTR
Kd [1]: 2900 nM
Kd [2]: 1280 nM
Kd [3]: 200 nM
